Experimental data from patent publication US20260001928A1 (CORTERIA PHARMACEUTICALS, priority 2022, published 2026).
*1 amine or outer side, *2 acyl side, *3 side chain or, on linkers, in order; H or OH if unused. Where no end group is shown, it is not given here. Side-chain parts run from the residue outwards. [ ]: non-standard residue; d: D form. The star is where a group is joined. C20 diacid = O=C(O)CCCCCCCCCCCCCCCCCCC(=O)*; C18 diacid = O=C(O)CCCCCCCCCCCCCCCCC(=O)*; C16 diacid = O=C(O)CCCCCCCCCCCCCCC(=O)*; γGlu = O=C(O)[C@H](CCC(=O)[*:2])N[*:1]; C14 diacid = O=C(O)CCCCCCCCCCCCC(=O)*; NMeI = CC[C@H](C)[C@H](NC)C(=O)O; Pentanoyl = CCCCC(=O)*; Aib = CC(C)(N)C(=O)O

Target: Rat CRF2 a (corticotropin-releasing factor receptor 2), on the A7R5 rat aortic smooth muscle cell line (rat, UniProt P47866 20-411)
Sequence (P47866 20-411): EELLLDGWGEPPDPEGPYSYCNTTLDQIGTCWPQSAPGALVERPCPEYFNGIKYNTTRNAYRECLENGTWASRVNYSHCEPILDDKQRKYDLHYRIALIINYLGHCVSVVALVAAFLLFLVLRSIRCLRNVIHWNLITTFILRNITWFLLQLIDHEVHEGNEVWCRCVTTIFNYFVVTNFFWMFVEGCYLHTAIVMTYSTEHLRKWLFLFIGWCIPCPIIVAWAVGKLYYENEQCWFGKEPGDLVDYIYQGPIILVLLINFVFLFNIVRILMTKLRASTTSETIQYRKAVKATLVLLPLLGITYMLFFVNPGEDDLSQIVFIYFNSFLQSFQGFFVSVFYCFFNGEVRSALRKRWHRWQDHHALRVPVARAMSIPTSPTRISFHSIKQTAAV
Assay: cell-based or functional assay

EC50 [nM] 0% HSA (cAMP, A7R5 rat aortic smooth muscle cells) [nM]	Binder
0.04	[NMeI]VLSLD[dV]PIKLK([γGlu-C20 diacid])KILLEQEKQK[Aib]QREQAETN[Aib]QILAQV-NH2 (N-terminus assumed; SMILES CC[C@H](C)[C@H](NC)C(=O)N[C@H](C(=O)N[C@@H](CC(C)C)C(=O)N[C@@H](CO)C(=O)N[C@@H](CC(C)C)C(=O)N[C@@H](CC(=O)O)C(=O)N[C@@H](C(=O)N1CCC[C@H]1C(=O)N[C@H](C(=O)N[C@@H](CCCCN)C(=O)N[C@@H](CC(C)C)C(=O)N[C@@H](CCCCNC(=O)CC[C@H](NC(=O)CCCCCCCCCCCCCCCCCCC(=O)O)C(=O)O)C(=O)N[C@@H](CCCCN)C(=O)N[C@H](C(=O)N[C@@H](CC(C)C)C(=O)N[C@@H](CC(C)C)C(=O)N[C@@H](CCC(=O)O)C(=O)N[C@@H](CCC(N)=O)C(=O)N[C@@H](CCC(=O)O)C(=O)N[C@@H](CCCCN)C(=O)N[C@@H](CCC(N)=O)C(=O)N[C@@H](CCCCN)C(=O)NC(C)(C)C(=O)N[C@@H](CCC(N)=O)C(=O)N[C@@H](CCCNC(=N)N)C(=O)N[C@@H](CCC(=O)O)C(=O)N[C@@H](CCC(N)=O)C(=O)N[C@@H](C)C(=O)N[C@@H](CCC(=O)O)C(=O)N[C@H](C(=O)N[C@@H](CC(N)=O)C(=O)NC(C)(C)C(=O)N[C@@H](CCC(N)=O)C(=O)N[C@H](C(=O)N[C@@H](CC(C)C)C(=O)N[C@@H](C)C(=O)N[C@@H](CCC(N)=O)C(=O)N[C@H](C(N)=O)C(C)C)[C@@H](C)CC)[C@@H](C)O)[C@@H](C)CC)[C@@H](C)CC)C(C)C)C(C)C) [peptide of SEQ ID NO: 215]
0.06	Ac-IVLSLD[dV]PIKLK([γGlu-C20 diacid])KILLEQEKQKKQREQAETN[Aib]QILAQV-NH2 (SMILES CC[C@H](C)[C@H](NC(C)=O)C(=O)N[C@H](C(=O)N[C@@H](CC(C)C)C(=O)N[C@@H](CO)C(=O)N[C@@H](CC(C)C)C(=O)N[C@@H](CC(=O)O)C(=O)N[C@@H](C(=O)N1CCC[C@H]1C(=O)N[C@H](C(=O)N[C@@H](CCCCN)C(=O)N[C@@H](CC(C)C)C(=O)N[C@@H](CCCCNC(=O)CC[C@H](NC(=O)CCCCCCCCCCCCCCCCCCC(=O)O)C(=O)O)C(=O)N[C@@H](CCCCN)C(=O)N[C@H](C(=O)N[C@@H](CC(C)C)C(=O)N[C@@H](CC(C)C)C(=O)N[C@@H](CCC(=O)O)C(=O)N[C@@H](CCC(N)=O)C(=O)N[C@@H](CCC(=O)O)C(=O)N[C@@H](CCCCN)C(=O)N[C@@H](CCC(N)=O)C(=O)N[C@@H](CCCCN)C(=O)N[C@@H](CCCCN)C(=O)N[C@@H](CCC(N)=O)C(=O)N[C@@H](CCCNC(=N)N)C(=O)N[C@@H](CCC(=O)O)C(=O)N[C@@H](CCC(N)=O)C(=O)N[C@@H](C)C(=O)N[C@@H](CCC(=O)O)C(=O)N[C@H](C(=O)N[C@@H](CC(N)=O)C(=O)NC(C)(C)C(=O)N[C@@H](CCC(N)=O)C(=O)N[C@H](C(=O)N[C@@H](CC(C)C)C(=O)N[C@@H](C)C(=O)N[C@@H](CCC(N)=O)C(=O)N[C@H](C(N)=O)C(C)C)[C@@H](C)CC)[C@@H](C)O)[C@@H](C)CC)[C@@H](C)CC)C(C)C)C(C)C) [peptide of SEQ ID NO: 206]
0.05	[NMeI]VLSLD[dV]PIKLK([γGlu-C18 diacid])KILLEQEKQK[Aib]QREQAETN[Aib]QILAQV-NH2 (N-terminus assumed; SMILES CC[C@H](C)[C@H](NC)C(=O)N[C@H](C(=O)N[C@@H](CC(C)C)C(=O)N[C@@H](CO)C(=O)N[C@@H](CC(C)C)C(=O)N[C@@H](CC(=O)O)C(=O)N[C@@H](C(=O)N1CCC[C@H]1C(=O)N[C@H](C(=O)N[C@@H](CCCCN)C(=O)N[C@@H](CC(C)C)C(=O)N[C@@H](CCCCNC(=O)CC[C@H](NC(=O)CCCCCCCCCCCCCCCCC(=O)O)C(=O)O)C(=O)N[C@@H](CCCCN)C(=O)N[C@H](C(=O)N[C@@H](CC(C)C)C(=O)N[C@@H](CC(C)C)C(=O)N[C@@H](CCC(=O)O)C(=O)N[C@@H](CCC(N)=O)C(=O)N[C@@H](CCC(=O)O)C(=O)N[C@@H](CCCCN)C(=O)N[C@@H](CCC(N)=O)C(=O)N[C@@H](CCCCN)C(=O)NC(C)(C)C(=O)N[C@@H](CCC(N)=O)C(=O)N[C@@H](CCCNC(=N)N)C(=O)N[C@@H](CCC(=O)O)C(=O)N[C@@H](CCC(N)=O)C(=O)N[C@@H](C)C(=O)N[C@@H](CCC(=O)O)C(=O)N[C@H](C(=O)N[C@@H](CC(N)=O)C(=O)NC(C)(C)C(=O)N[C@@H](CCC(N)=O)C(=O)N[C@H](C(=O)N[C@@H](CC(C)C)C(=O)N[C@@H](C)C(=O)N[C@@H](CCC(N)=O)C(=O)N[C@H](C(N)=O)C(C)C)[C@@H](C)CC)[C@@H](C)O)[C@@H](C)CC)[C@@H](C)CC)C(C)C)C(C)C) [peptide of SEQ ID NO: 145]
0.15	Ac-IVLSLD[dV]PIKLK([γGlu-C18 diacid])KILLEQEKQKAQREQAETN[Aib]QILAQV-NH2 (SMILES CC[C@H](C)[C@H](NC(C)=O)C(=O)N[C@H](C(=O)N[C@@H](CC(C)C)C(=O)N[C@@H](CO)C(=O)N[C@@H](CC(C)C)C(=O)N[C@@H](CC(=O)O)C(=O)N[C@@H](C(=O)N1CCC[C@H]1C(=O)N[C@H](C(=O)N[C@@H](CCCCN)C(=O)N[C@@H](CC(C)C)C(=O)N[C@@H](CCCCNC(=O)CC[C@H](NC(=O)CCCCCCCCCCCCCCCCC(=O)O)C(=O)O)C(=O)N[C@@H](CCCCN)C(=O)N[C@H](C(=O)N[C@@H](CC(C)C)C(=O)N[C@@H](CC(C)C)C(=O)N[C@@H](CCC(=O)O)C(=O)N[C@@H](CCC(N)=O)C(=O)N[C@@H](CCC(=O)O)C(=O)N[C@@H](CCCCN)C(=O)N[C@@H](CCC(N)=O)C(=O)N[C@@H](CCCCN)C(=O)N[C@@H](C)C(=O)N[C@@H](CCC(N)=O)C(=O)N[C@@H](CCCNC(=N)N)C(=O)N[C@@H](CCC(=O)O)C(=O)N[C@@H](CCC(N)=O)C(=O)N[C@@H](C)C(=O)N[C@@H](CCC(=O)O)C(=O)N[C@H](C(=O)N[C@@H](CC(N)=O)C(=O)NC(C)(C)C(=O)N[C@@H](CCC(N)=O)C(=O)N[C@H](C(=O)N[C@@H](CC(C)C)C(=O)N[C@@H](C)C(=O)N[C@@H](CCC(N)=O)C(=O)N[C@H](C(N)=O)C(C)C)[C@@H](C)CC)[C@@H](C)O)[C@@H](C)CC)[C@@H](C)CC)C(C)C)C(C)C) [peptide of SEQ ID NO: 189]

The remaining lines, values behind:

Binder	EC50 [nM] 0% HSA (cAMP, A7R5 rat aortic smooth muscle cells) [nM]
Ac-IVLSLD[dV]PIKLK([γGlu-C16 diacid])KILLEQEKQKKQREQAETN[Aib]QILAQV-NH2 (SMILES CC[C@H](C)[C@H](NC(C)=O)C(=O)N[C@H](C(=O)N[C@@H](CC(C)C)C(=O)N[C@@H](CO)C(=O)N[C@@H](CC(C)C)C(=O)N[C@@H](CC(=O)O)C(=O)N[C@@H](C(=O)N1CCC[C@H]1C(=O)N[C@H](C(=O)N[C@@H](CCCCN)C(=O)N[C@@H](CC(C)C)C(=O)N[C@@H](CCCCNC(=O)CC[C@H](NC(=O)CCCCCCCCCCCCCCC(=O)O)C(=O)O)C(=O)N[C@@H](CCCCN)C(=O)N[C@H](C(=O)N[C@@H](CC(C)C)C(=O)N[C@@H](CC(C)C)C(=O)N[C@@H](CCC(=O)O)C(=O)N[C@@H](CCC(N)=O)C(=O)N[C@@H](CCC(=O)O)C(=O)N[C@@H](CCCCN)C(=O)N[C@@H](CCC(N)=O)C(=O)N[C@@H](CCCCN)C(=O)N[C@@H](CCCCN)C(=O)N[C@@H](CCC(N)=O)C(=O)N[C@@H](CCCNC(=N)N)C(=O)N[C@@H](CCC(=O)O)C(=O)N[C@@H](CCC(N)=O)C(=O)N[C@@H](C)C(=O)N[C@@H](CCC(=O)O)C(=O)N[C@H](C(=O)N[C@@H](CC(N)=O)C(=O)NC(C)(C)C(=O)N[C@@H](CCC(N)=O)C(=O)N[C@H](C(=O)N[C@@H](CC(C)C)C(=O)N[C@@H](C)C(=O)N[C@@H](CCC(N)=O)C(=O)N[C@H](C(N)=O)C(C)C)[C@@H](C)CC)[C@@H](C)O)[C@@H](C)CC)[C@@H](C)CC)C(C)C)C(C)C) [peptide of SEQ ID NO: 40]	0.59
Pentanoyl-VLSLD[dV]PIKLK([γGlu-C14 diacid])KILLEQEKQKKQREQAETN[Aib]QILAQV-NH2 [peptide of SEQ ID NO: 86]	0.68
[NMeI]VLSLD[dV]PIKLK([γGlu-C18 diacid])KILLEQEKQKAQREQAETN[Aib]QILAQV-NH2 (N-terminus assumed; SMILES CC[C@H](C)[C@H](NC)C(=O)N[C@H](C(=O)N[C@@H](CC(C)C)C(=O)N[C@@H](CO)C(=O)N[C@@H](CC(C)C)C(=O)N[C@@H](CC(=O)O)C(=O)N[C@@H](C(=O)N1CCC[C@H]1C(=O)N[C@H](C(=O)N[C@@H](CCCCN)C(=O)N[C@@H](CC(C)C)C(=O)N[C@@H](CCCCNC(=O)CC[C@H](NC(=O)CCCCCCCCCCCCCCCCC(=O)O)C(=O)O)C(=O)N[C@@H](CCCCN)C(=O)N[C@H](C(=O)N[C@@H](CC(C)C)C(=O)N[C@@H](CC(C)C)C(=O)N[C@@H](CCC(=O)O)C(=O)N[C@@H](CCC(N)=O)C(=O)N[C@@H](CCC(=O)O)C(=O)N[C@@H](CCCCN)C(=O)N[C@@H](CCC(N)=O)C(=O)N[C@@H](CCCCN)C(=O)N[C@@H](C)C(=O)N[C@@H](CCC(N)=O)C(=O)N[C@@H](CCCNC(=N)N)C(=O)N[C@@H](CCC(=O)O)C(=O)N[C@@H](CCC(N)=O)C(=O)N[C@@H](C)C(=O)N[C@@H](CCC(=O)O)C(=O)N[C@H](C(=O)N[C@@H](CC(N)=O)C(=O)NC(C)(C)C(=O)N[C@@H](CCC(N)=O)C(=O)N[C@H](C(=O)N[C@@H](CC(C)C)C(=O)N[C@@H](C)C(=O)N[C@@H](CCC(N)=O)C(=O)N[C@H](C(N)=O)C(C)C)[C@@H](C)CC)[C@@H](C)O)[C@@H](C)CC)[C@@H](C)CC)C(C)C)C(C)C) [peptide of SEQ ID NO: 144]	0.06
[NMeI]VLSLD[dV]PIKLK([γGlu-C14 diacid])KILLEQEKQKKQREQAETN[Aib]QILAQV-NH2 [peptide of SEQ ID NO: 87]	0.32
